Results reported in patent publication US20110091994A1, “Methods for Screening Compounds for Treating and/or Preventing an Hepatitis C Virus Infection” (priority 2008, published 2011).
Where two headings read alike, the source gives them in different places.

B1: LMNB1 (protein, UniProt P20700 2-583, looked up)
Lamin-B1: ATATPVPPRMGSRAGGPTTPLSPTRLSRLQEKEELRELNDRLAVYIDKVRSLETENSALQLQVTEREEVRGRELTGLKALYETELADARRALDDTARERAKLQIELGKCKAEHDQLLLNYAKKESDLNGAQIKLREYEAALNSKDAALATALGDKKSLEGDLEDLKDQIAQLEASLAAAKKQLADETLLKVDLENRCQSLTEDLEFRKSMYEEEINETRRKHETRLVEVDSGRQIEYEYKLAQALHEMREQHDAQVRLYKEELEQTYHAKLENARLSSEMNTSTVNSAREELMESRMRIESLSSQLSNLQKESRACLERIQELEDLLAKEKDNSRRMLTDKEREMAEIRDQMQQQLNDYEQLLDVKLALDMEISAYRKLLEGEEERLKLSPSPSSRVTVSRASSSRSVRTTRGKRKRVDVEESEASSSVSISHSASATGNVCIEEIDVDGKFIRLKNTSEQDQPMGGWEMIRKIGDTSVSYKYTSRYVLKAGQTVTIWAANAGVTASPPTDLIWKNQNSWGTGEDVKVILKNSQGEEVAQRSTVFKTTIPEEEEEEEEAAGVVVEEELFHQQGTPRASNRSC
B2: CCDC52 (protein, UniProt Q8N0Z3 1-855, looked up)
Spindle and …: MSFVRVNRCGPRVGVRKTPKVKKKKTSVKQEWDNTVTDLTVHRATPEDLVRRHEIHKSKNRALVHWELQEKALKRKWRKQKPETLNLEKRRLSIMKEILSDQYQMQDVLEKSDHLIAAAKELFPRRRTGFPNVTVAPDSSQGPIVVNQDPITQSIFNESVIEPQALNDVDGEEEGTVNSQSGESENENELDNSLNSQSNTNTDRFLQQLTEENFELISKLWTDIQQKIATQSQITPPGTPSSALSSGEQRAALNATNAVKRLQTRLQPEESTETLDSSYVVGHVLNSRKQKQLLNKVKRKPNLHALSKPKKNISSGSTTSADLPNRTNSNLDVLKHMIHEVEHEMEEYERWTGREVKGLQSSQGLTGFTLSLVSSLCRLVRYLKESEIQLRKEVETRQQLEQVLGDHRELIDALTAEILRLREENAATQARLQQYMVTTDEQLISLTHAIKNCPVINNRQEIQASESGATGRRVMDSPERPVVNANVSVPLMFREEVAEFPQEELPVKLSQVPDPPDNMNLAKNFPAHIFEPAVLLTPPRQKSNLKFSPLQDVLRRTVQTRPAPRLPPTVEIIEKEQNWEEKTLPIDTDIQNSSEENRLFTQRWRVSHMGEDLENKTQAPFVNLSQPLCNSHSNTQQSRSPTFSEELPVLGDGQQLRTNESLIQRKDIMTRIADLTLQNSAIKAHMNNIIEPRGEQGDGLRELNKQESASDMTSTFPVAQSLTPGSMEERIAELNRQSMEARGKLLQLIEQQKLVGLNLSPPMSPVQLPLRAWTEGAKRTIEVSIPGAEAPESSKCSTVSPVSGINTRRSSGATGNSCSPLNATSGSGRFTPLNPRAKIEKQNEEGWFALSTHVS
B3: CBY1 (protein, UniProt Q9Y3M2 1-126, looked up)
Protein chibby homolog 1: MPFFGNTFSPKKTPPRKSASLSNLHSLDRSTREVELGLEYGSPTMNLAGQSLKFENGQWIAETGVSGGVDRREVQRLRRRNQQLEEENNLLRLKVDILLDMLSESTAESHLMEKELDELRISRKRK

Columns and labels:
[1] = target: T1, HCV ORFs (Gal4-DB fusions) (Hepatitis C virus genotype 1b, UniProt Q9WMX2); format: binding, HCV genotype 1b, isolate con1; conditions: human protein as prey
T1 construct: expressed in transfected cells; host or cells: Saccharomyces cerevisiae MAV203 (IMAP1) / AH109 (IMAP2)

HCV proteins = target: T2, HCV proteins (Hepatitis C virus genotype 1b, UniProt Q9WMX2); experiment: Validation by Y2H pairwise matrices; format: binding;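 further: yeast two-hybrid pairwise tests of interactions first found in Y2H screens of HCV bait proteins against human cDNA libraries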
T2 construct: expressed in transfected cells

[2] = tested on: HCV ORFs (Gal4-DB fusions); format: binding, HCV genotype 1b, isolate con1; conditions: human protein listed by gene symbol; the value names the HCV protein it interacts with
[3] = validation of interaction with HCV protein NS3
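Wherever IMAP Y2H IMAP1 (number of IST) is given: yeast two-hybrid screens using HCV genotype 1b proteins fused to Gal4-DB as baits against prey cDNA libraries from human spleen and foetal brain, IMAP1 via transformation and IMAP2 via mating.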
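Wherever Interaction with viral protein is given: yeast two-hybrid screens using HCV genotype 1b proteins fused to Gal4-DB as baits against prey cDNA libraries from human spleen and foetal brain, IMAP1 via transformation and IMAP2 via mating.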

Molecule	IMAP Y2H IMAP1 (number of IST) ([1]; HCV protein p7 as bait)	Y2H matrices (HCV proteins; interaction with HCV protein p7)	Interaction with viral protein [2]	IMAP Y2H IMAP1 (number of IST) ([1]; HCV protein NS3 as bait)	Y2H matrices (HCV proteins; [3])
B1	1	+			
B2			NS3	1	+
B3			NS3	2	+
